Target: MERS-CoV spike protein (S) (MERS-CoV, UniProt K9N5Q8 18-1296)
Experiment: EMSA

Sequence of MERS-CoV spike protein (S) (K9N5Q8 18-1296): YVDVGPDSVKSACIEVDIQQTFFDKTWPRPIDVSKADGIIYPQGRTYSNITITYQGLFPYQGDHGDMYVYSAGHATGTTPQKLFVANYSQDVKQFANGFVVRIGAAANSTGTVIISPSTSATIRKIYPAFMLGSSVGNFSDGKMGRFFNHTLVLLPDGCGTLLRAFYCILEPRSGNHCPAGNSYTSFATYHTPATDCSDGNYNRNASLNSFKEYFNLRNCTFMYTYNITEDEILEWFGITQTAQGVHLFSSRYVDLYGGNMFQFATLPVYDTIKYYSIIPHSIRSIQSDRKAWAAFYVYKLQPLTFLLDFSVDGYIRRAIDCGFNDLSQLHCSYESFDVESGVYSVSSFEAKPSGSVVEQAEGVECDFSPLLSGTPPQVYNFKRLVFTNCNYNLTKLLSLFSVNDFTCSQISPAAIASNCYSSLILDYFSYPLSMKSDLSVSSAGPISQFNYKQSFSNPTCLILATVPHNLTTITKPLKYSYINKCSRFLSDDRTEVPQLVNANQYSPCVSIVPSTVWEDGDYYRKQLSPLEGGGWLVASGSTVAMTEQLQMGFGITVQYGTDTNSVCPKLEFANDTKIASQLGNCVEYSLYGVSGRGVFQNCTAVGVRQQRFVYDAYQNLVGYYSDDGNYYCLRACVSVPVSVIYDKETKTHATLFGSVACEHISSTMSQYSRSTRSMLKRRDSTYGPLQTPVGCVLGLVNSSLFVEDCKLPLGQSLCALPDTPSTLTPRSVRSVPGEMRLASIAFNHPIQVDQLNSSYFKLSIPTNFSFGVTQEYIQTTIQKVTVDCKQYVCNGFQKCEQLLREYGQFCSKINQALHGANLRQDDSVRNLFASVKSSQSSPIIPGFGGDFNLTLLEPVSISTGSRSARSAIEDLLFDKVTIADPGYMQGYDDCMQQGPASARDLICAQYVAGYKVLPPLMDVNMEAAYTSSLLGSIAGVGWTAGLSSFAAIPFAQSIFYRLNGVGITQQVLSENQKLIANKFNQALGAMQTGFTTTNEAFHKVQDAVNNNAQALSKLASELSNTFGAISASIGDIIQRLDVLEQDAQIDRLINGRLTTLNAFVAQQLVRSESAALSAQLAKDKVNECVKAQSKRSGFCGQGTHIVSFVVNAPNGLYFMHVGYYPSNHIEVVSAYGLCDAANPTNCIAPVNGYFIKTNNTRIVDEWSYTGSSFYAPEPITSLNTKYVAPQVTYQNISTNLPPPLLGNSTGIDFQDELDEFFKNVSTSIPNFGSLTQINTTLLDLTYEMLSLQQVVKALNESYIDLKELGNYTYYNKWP

B1: AIapt/FAM/SH-DNA 3WJ (MF-DNA) (structured_DNA)
DNA 1: GTGTGCATGGATAGCACGTAACGGTGTAGTAGATACGTGCGGGTAGGAAGAAAGGGAAATAGTTGTCCTGTTGTTGCCATGTGTATGTGGG
DNA 2: CCCACATACTTTGTTGATCC
DNA 3: GGATCAATCATGGCAA
modifications: 5' thiol on strand 3 (SH/3WJc)
binding result: no binding

From article PMC7185628
